T1: FHR-B_(Y162H)
T1 chain: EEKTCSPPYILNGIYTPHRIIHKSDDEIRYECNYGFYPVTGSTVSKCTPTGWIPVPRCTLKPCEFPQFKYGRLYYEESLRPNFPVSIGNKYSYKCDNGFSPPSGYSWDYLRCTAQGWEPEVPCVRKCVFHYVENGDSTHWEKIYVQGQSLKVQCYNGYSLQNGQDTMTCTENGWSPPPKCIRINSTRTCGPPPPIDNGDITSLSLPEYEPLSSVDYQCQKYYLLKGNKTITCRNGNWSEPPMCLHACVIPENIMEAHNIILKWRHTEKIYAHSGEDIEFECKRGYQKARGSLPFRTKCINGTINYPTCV

T2: FHR-B_(T161A,I166V)
T2 chain: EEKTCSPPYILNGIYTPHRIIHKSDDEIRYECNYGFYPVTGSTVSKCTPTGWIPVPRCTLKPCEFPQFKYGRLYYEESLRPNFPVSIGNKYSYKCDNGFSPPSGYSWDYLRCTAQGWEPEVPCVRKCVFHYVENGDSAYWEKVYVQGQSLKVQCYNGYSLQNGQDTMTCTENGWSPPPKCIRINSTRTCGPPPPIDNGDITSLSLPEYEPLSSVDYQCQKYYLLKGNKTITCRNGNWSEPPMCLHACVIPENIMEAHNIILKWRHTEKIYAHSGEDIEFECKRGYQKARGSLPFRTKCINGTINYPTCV


What was measured:
human C3b = assay: ELISA; details: chain shown with the change; human C3b-coated plates; value read at 50 nM protein (highest concentration); parent: est. 0.69; read off a plot
FHR-B_(Y162H) = target: T1, FHR-B_(Y162H); assay: AUC (analytical ultracentrifugation, sedimentation velocity), self-association (dimerization); details: chain shown with the change; PBS pH 7; parent: est. 1.0; read off a plot
FHR-B_(T161A,I166V) = target: T2, FHR-B_(T161A,I166V); assay: as above; details: chain shown with the change; PBS pH 7; parent: est. 1.0; read off a plot

Sequence of human C3b (chain, as listed by the source, chain 1 of 2): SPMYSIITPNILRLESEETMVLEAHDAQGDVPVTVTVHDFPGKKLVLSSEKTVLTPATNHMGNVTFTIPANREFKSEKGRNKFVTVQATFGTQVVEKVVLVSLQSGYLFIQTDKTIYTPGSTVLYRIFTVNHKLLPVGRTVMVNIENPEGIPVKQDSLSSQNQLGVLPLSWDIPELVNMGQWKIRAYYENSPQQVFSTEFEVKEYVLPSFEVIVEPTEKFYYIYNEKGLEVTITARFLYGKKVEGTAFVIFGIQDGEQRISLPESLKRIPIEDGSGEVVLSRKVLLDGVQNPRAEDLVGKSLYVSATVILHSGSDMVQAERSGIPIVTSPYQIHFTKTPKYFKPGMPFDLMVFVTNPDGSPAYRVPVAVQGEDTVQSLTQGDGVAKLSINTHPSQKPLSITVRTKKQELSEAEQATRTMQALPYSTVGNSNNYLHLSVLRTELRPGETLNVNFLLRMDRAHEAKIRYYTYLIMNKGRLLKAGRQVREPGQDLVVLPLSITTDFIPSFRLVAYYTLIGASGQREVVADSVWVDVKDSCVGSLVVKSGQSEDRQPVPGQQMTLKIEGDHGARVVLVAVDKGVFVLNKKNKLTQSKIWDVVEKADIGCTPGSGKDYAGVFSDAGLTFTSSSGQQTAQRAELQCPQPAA
Sequence of human C3b (chain, as listed by the source, chain 2 of 2): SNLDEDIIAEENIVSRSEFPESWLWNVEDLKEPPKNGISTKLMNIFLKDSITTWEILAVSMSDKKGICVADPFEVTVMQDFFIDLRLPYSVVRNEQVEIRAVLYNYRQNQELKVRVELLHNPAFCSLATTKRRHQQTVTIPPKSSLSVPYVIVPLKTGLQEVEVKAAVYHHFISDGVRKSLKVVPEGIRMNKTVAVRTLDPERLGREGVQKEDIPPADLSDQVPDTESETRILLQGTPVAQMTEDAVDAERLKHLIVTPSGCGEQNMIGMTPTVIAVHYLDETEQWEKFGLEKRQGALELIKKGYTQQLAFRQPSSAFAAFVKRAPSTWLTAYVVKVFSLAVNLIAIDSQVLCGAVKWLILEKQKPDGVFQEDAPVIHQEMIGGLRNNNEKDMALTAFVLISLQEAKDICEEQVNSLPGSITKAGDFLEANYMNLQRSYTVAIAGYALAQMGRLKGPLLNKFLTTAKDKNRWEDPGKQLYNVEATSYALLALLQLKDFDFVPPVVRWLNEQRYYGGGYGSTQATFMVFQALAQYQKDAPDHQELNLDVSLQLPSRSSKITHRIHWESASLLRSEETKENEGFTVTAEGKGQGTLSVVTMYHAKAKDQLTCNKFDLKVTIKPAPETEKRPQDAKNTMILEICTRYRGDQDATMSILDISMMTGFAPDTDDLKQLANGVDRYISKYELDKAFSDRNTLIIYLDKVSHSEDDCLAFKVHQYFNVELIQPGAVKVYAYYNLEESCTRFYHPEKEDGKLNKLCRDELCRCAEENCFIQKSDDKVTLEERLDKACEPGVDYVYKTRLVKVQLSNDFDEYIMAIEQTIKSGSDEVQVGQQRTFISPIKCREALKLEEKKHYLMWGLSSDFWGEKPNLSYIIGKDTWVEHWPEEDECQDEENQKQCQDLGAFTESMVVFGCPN

response (human C3b) [Abs 405nm]	other: c(S) height of dimer peak (normalised distribution) (FHR-B_(Y162H))	other: c(S) height of dimer peak (normalised distribution) (FHR-B_(T161A,I166V))	Binder
0.66	0.09	–	recombinant form of the native mouse FHR-B protein (rFHR-B) Y162H (protein) EEKTCSPPYILNGIYTPHRIIHKSDDEIRYECNYGFYPVTGSTVSKCTPTGWIPVPRCTLKPCEFPQFKYGRLYYEESLRPNFPVSIGNKYSYKCDNGFSPPSGYSWDYLRCTAQGWEPEVPCVRKCVFHYVENGDSTHWEKIYVQGQSLKVQCYNGYSLQNGQDTMTCTENGWSPPPKCIRINSTRTCGPPPPIDNGDITSLSLPEYEPLSSVDYQCQKYYLLKGNKTITCRNGNWSEPPMCLHACVIPENIMEAHNIILKWRHTEKIYAHSGEDIEFECKRGYQKARGSLPFRTKCINGTINYPTCV
0.66	–	0.13	recombinant form of the native mouse FHR-B protein (rFHR-B) T161A; I166V (protein) EEKTCSPPYILNGIYTPHRIIHKSDDEIRYECNYGFYPVTGSTVSKCTPTGWIPVPRCTLKPCEFPQFKYGRLYYEESLRPNFPVSIGNKYSYKCDNGFSPPSGYSWDYLRCTAQGWEPEVPCVRKCVFHYVENGDSAYWEKVYVQGQSLKVQCYNGYSLQNGQDTMTCTENGWSPPPKCIRINSTRTCGPPPPIDNGDITSLSLPEYEPLSSVDYQCQKYYLLKGNKTITCRNGNWSEPPMCLHACVIPENIMEAHNIILKWRHTEKIYAHSGEDIEFECKRGYQKARGSLPFRTKCINGTINYPTCV

— article PMC11813886
